Molecular target: wild-type Pfs48/45 D3 (6C domain), glycosylated (Plasmodium falciparum) (UniProt Q8I6T1)
UniProt Q8I6T1, sequence (Q8I6T1 291-428, tags left off): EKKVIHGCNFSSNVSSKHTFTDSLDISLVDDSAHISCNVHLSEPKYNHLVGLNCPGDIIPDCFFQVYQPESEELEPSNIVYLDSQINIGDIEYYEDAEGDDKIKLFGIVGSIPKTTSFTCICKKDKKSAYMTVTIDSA

Work on “TB31F neutralizing monoclonal antibody (humanized version of mAb 85RF45.1) (from UniProt P0DOY2 1-106)” yielded a Kd of 2.5 nM, a koff of 0.00082 s⁻¹ and a kon of 350000 M⁻¹ s⁻¹.
